Data published in patent US20220324969A1 (MYTHIC THERAPEUTICS, published 2022).
Where a chain is given by its changes, count along the chain named. Numbers in names are those of the source.

B1: MYT1350 (antibody, V domains shown)
VH: QVQLVQSGAEVKKPGASVKVSCKASGYTFTNYDINWVRQAPGQGLEWIGWIYPGHGSTKYNEKFKAKATLTADTSTSTAYMELRSLRSDDTAVYYCASGYEDAMDYWGQGTTVTVSS
VL: DIQMTQSPSSLSASVGDRVTINCKASQDINSYLSWFQQKPGKAPKTLIYRANRLVDGVPSRFSGSGSGQDYTLTISSLQPEDFATYYCLQYDEFPLTFGGGTKVEIK
notes: IgG; vadastuximab VH variant #16 (D55H)
B2: MYT1356 (antibody, V domains shown)
VH: B1 VH with H55D, N61H
VL: B1 VL
notes: IgG; vadastuximab VH variant #22 (N61H)
B3: MYT1352 (antibody, V domains shown)
VH: B1 VH with H55D, S57H
VL: B1 VL
notes: IgG; vadastuximab VH variant #18 (S57H)
B4: MYT1357 (antibody, V domains shown)
VH: B1 VH with H55D, E62H
VL: B1 VL
notes: IgG; vadastuximab VH variant #23 (E62H)
B5: MYT1365 (antibody, V domains shown)
VH: B1 VH with H55D, Y100H
VL: B1 VL
notes: IgG; vadastuximab VH variant #31 (Y100H)
B6: MYT1370 (antibody, V domains shown)
VH: B1 VH with H55D, D105H
VL: B1 VL
notes: IgG; vadastuximab VH variant #36 (D105H)
B7: MYT1351 (antibody, V domains shown)
VH: B1 VH with H55D, G56H
VL: B1 VL
notes: IgG; vadastuximab VH variant #17 (G56H)
B8: MYT1355 (antibody, V domains shown)
VH: B1 VH with H55D, Y60H
VL: B1 VL
notes: IgG; vadastuximab VH variant #21 (Y60H)
B9: MYT1354 (antibody, V domains shown)
VH: B1 VH with H55D, K59H
VL: B1 VL
notes: IgG; vadastuximab VH variant #20 (K59H)
B10: MYT1358 (antibody, V domains shown)
VH: B1 VH with H55D, K63H
VL: B1 VL
notes: IgG; vadastuximab VH variant #24 (K63H)
B11: MYT1359 (antibody, V domains shown)
VH: B1 VH with H55D, F64H
VL: B1 VL
notes: IgG; vadastuximab VH variant #25 (F64H)
B12: MYT1361 (antibody, V domains shown)
VH: B1 VH with H55D, A66H
VL: B1 VL
notes: IgG; vadastuximab VH variant #27 (A66H)
B13: MYT1360 (antibody, V domains shown)
VH: B1 VH with H55D, K65H
VL: B1 VL
notes: IgG; vadastuximab VH variant #26 (K65H)
B14: MYT2649 (antibody, V domains shown)
VH: B1 VH with F29H, T30H, H55D
VL: B1 VL
notes: IgG; vadastuximab VH combination #1 (F29H+T30H)
B15: MYT1363 (antibody, V domains shown)
VH: B1 VH with H55D, S98H
VL: B1 VL
notes: IgG; vadastuximab VH variant #29 (S98H)
B16: MYT1371 (antibody, V domains shown)
VH: B1 VH with H55D, Y106H
VL: B1 VL
notes: IgG; vadastuximab VH variant #37 (Y106H)
B17: MYT1366 (antibody, V domains shown)
VH: B1 VH with H55D, E101H
VL: B1 VL
notes: IgG; vadastuximab VH variant #32 (E101H)
B18: MYT1353 (antibody, V domains shown)
VH: B1 VH with H55D, T58H
VL: B1 VL
notes: IgG; vadastuximab VH variant #19 (T58H)

biological target: CD33 (Sino Biological, Cat #12238-H08H) (UniProt P20138 18-259); test: BLI, IgG captured on anti-human Fc sensor, 50 nM CD33, pH 7.4 vs pH 5.4
Sequence (P20138 18-259 limits assumed): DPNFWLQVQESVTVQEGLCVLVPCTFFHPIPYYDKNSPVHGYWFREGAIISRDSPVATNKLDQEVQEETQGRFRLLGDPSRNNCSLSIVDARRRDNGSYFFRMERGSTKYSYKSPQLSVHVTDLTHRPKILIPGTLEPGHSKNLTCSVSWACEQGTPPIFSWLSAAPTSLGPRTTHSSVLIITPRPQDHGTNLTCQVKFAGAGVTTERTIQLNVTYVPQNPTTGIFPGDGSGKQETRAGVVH

| binding result | Binder |
| --- | --- |
| binds | B1 |
| binds | B2 |
| binds | B3 |
| binds | B4 |
| binds | B5 |
| binds | B6 |
| binds | B7 |
| binds | B8 |
| binds | B9 |
| binds | B10 |
| binds | B11 |
| binds | B12 |
| binds | B13 |
| binds | B14 |
| binds | B15 |
| binds | B16 |
| binds | B17 |
| binds | B18 |
